Reference: patent US20230242658A1 (published 2023)
Substitutions are numbered along the chain they refer to.

T1: cynomolgus monkey 4-1BB on CHO-K1 cells (cynomolgus monkey)
T1 chain: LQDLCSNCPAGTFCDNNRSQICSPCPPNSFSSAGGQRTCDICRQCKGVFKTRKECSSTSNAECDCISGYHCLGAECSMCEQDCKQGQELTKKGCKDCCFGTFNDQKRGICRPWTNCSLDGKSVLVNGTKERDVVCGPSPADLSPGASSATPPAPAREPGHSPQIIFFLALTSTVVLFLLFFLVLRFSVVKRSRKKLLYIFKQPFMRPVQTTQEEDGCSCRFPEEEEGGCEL

B1: PR001759 (antibody, V domains shown)
VH: EVQLLESGGGLVQPGGSLRLSCAASGFTFSSYAMSWFRQPPETGLQWVSSIGGSGGDTYYADSVKGRFTISRDNSKNTLYLQMNSLRAEDTAVYYCAKEGSNGTDDNYYDVDVWGQGTTVTVSS
B2: PR001760 (antibody, V domains shown)
VH: EVQLVESGGGVVQPGGSLRLSCAASGFTFSNYAMTWVRQAPEKGLEWVSSISGSGVSTYYADSVKGRFTISRDNSKNTLYLQMTRLTAEDTAVYFCAKEGSSETDDHYYNVDVWGQGTTVTVSS
B3: PR001758 (antibody, V domains shown)
VH: EVQLLESGGGLVQLGGSLRLSCAASGFTFSRYAMTWVRQAPEKGLEWVSSISGSGDDTYYGDSVKGRFTISRDNSQNTVYLQMNSLRAEDTAVYFCAKEKAGTTGDYYYNVDVWGQGTTVTVSS
B4: PR001775 (antibody, V domains shown)
VH: EVQLLESGGGLVQSGGSLRLSCAASGFTFSSYAMSWVRQAPGKGLEWVSAISGSGGSTDYADSVKGRFTISRDNSTNTLYLQMNSLRAEDTAVYYCAKERAYDYSNYVDFDYWGQGTLVTVSS
B5: PR001781 (antibody, V domains shown)
VH: B3 VH with R31S, D56G, D57N, G61A, Q76K, V79L, F95Y, K100R, A101T
B6: PR001776 (antibody, V domains shown)
VH: EVQLLESGGGLVQPGGSLRLSCAASGFTFSSYAMSWVRQAPEKGLEWVSAISSSGGSTYYADSVKGRFTISRDNSKNTLYLQMNSLRAEDTAVYYCAKDGVTTPSYYYYYDMDVWGQGTTVTVSS
B7: PR001780 (antibody, V domains shown)
VH: EVQLLESGGGLIQPGGSLRLSCAASGFTFSSFAMTWVRQAPGKGLEWVSTISGSGDNTYYADSVKGRFTISRDNSKNTLYLQMNSLRAEDTAVYFCAKEDTAVASDYYYNIDVWGQGTTVTVSS
B8: PR007292 (antibody, V domains shown)
VH: EVQLVESGGGLVKPGGSLRLSCAASGFTFSDYYMSWIRQAPGKGLEWVSYISSSGSTIDYADSVKGRFTISRDNAKNSLYLQMNSLRAEDTAVYYCAREREEVAGTLDYDNWGQGTLVTVSS
B9: PR007294 (antibody, V domains shown)
VH: B8 VH with A23V, I37F, S53G, S56T, E102P, Y109F
B10: PR007293 (antibody, V domains shown)
VH: B8 VH with I37F, S52N, D59Y, A61E, D62Y, Y109F, N111Y
B11: PR001842 (antibody, V domains shown)
VH: EVQLLESGGGLVQPGGSLRLSCAASGFTFSSYAMSWGRQAPGKGLEWVSAISGSGGSTYYADSVKGRFTISRDNSKNTLYLHMNSLRAEDTAVYYCAKEKVATTGDYYYDMDVWGQGTTVTVSS
B12: PR001836 (antibody, V domains shown)
VH: EVQLLESGGGLVQPGGSLRLSCAASGFIFSNFAMTWVRQPPEKGLKWVSSINGSGFNTYYTDSVKGRFTISRDNSRNTLYLQMNRLTAEDTAVYFCAKEGSSETDDHYYNVDVWGQGTTVTVSS
B13: PR001830 (antibody, V domains shown)
VH: B2 VH with V5L, V11L, A23T, T35S, V56G, Y59F, T84N, R85S, T87R
B14: PR001833 (antibody, V domains shown)
VH: EVQLLESGGGLVQPGGSLRLSCAASGFTFSSYAMSWVRQAPEKGLEWVSSISGSGGSTFYADSVKGRFTISRDNSKNTLYLQMNSLRAEDTAVYFCAKEGATETDDYHFNTDVWGQGTTVTVSS
B15: PR001834 (antibody, V domains shown)
VH: B14 VH with S31G, S35T, A40P, G56N, S57N, F95Y, A101T, F109Y, T111M
B16: PR001831 (antibody, V domains shown)
VH: EVQLVESGGGVIQPGGSLRLSCEASGFTFSSYAMSWVRQAPEKGLEWVSSISGSGDSTYYADSVKGRFTISRDNSKNTLYLQMNSLRAEDTAGYHCAKEGSNGTDDYHYDIDVWGQGTSVTVSS
B17: PR000701 (bispecific antibody)
chain 1: not shown
chain 2: EVQLVESGGGLVQPGGSLRLSCAASGFTFSSYWMSWVRQAPGKGLEWVANIKQEGSEKYYVDSVKGRFTISRDNAKNSLYLQMNSLRAEDTAVYYCARDRAVAGAFDIWGQGTMVTVSSASTKGPSVFPLAPSSKSTSGGTAALGCLVKDYFPEPVTVSWNSGALTSGVHTFPAVLQSSGLYSLSSVVTVPSSSLGTQTYICNVNHKPSNTKVDKKVEPKSC
chain 3: not shown
B18: PR001764 (antibody, V domains shown)
VH: B14 VH with S50A, S54G, F59Y, N84D, R87K, F95Y, A101T, F109Y, T111M
B19: PR001766 (antibody, V domains shown)
VH: B11 VH with A50S, H82Q, V101T, A102G
B20: PR001767 (antibody, V domains shown)
VH: EVQLVETGGGLIQPGGSLRLSCAASGFTVSSNYMSWVRQAPGKGLEWVSVIYSDGSTYYADSVKGRFTISRDNSKNTLYLQMNSLRAEDTAVYYCARDRYYGSGNYPTAYYGMDVRGQGTTVTVSS
B21: PR001763 (antibody, V domains shown)
VH: EVQLLESGGGLVQPGGSLRLSCTASGFTFSNYAMSWVRQAPEKGLEWVSSISGSGGSTFYADSVKGRFTISRDNSKNTLYLQMNRLTAEDTAVYYCAKEGSNGTDDYHYDIDVWGQGTTVTVSS

Target: T1, cynomolgus monkey 4-1BB on CHO-K1 cells
Assay: FACS; FIG. 12A

| EC50 [nM] | Binder |
| --- | --- |
| 0.788 | B1 |
| 0.443 | B2 |
| 0.575 | B3 |

Target: T1, cynomolgus monkey 4-1BB on CHO-K1 cells
Assay: FACS; FIG. 12D

| EC50 [nM] | Binder |
| --- | --- |
| 2.66 | B4 |
| 3.1 | B5 |
| 18.1 | B6 |
| 2.99 | B7 |

Target: T2, human 4-1BB on CHO-K1 cells (human, UniProt Q07011 24-255)
Assay: FACS; FIG. 11K
Target sequence in this assay (Q07011 24-255): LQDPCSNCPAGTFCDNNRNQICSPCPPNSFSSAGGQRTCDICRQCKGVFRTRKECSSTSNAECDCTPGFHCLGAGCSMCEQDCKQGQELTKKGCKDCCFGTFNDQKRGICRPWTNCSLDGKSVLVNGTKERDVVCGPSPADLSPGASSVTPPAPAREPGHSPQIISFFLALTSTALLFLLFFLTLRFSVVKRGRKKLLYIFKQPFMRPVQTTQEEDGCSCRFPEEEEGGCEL

| EC50 [nM] | Binder |
| --- | --- |
| 1.81 | B8 |
| 1.14 | B9 |
| 2.25 | B10 |

Target: T1, cynomolgus monkey 4-1BB on CHO-K1 cells
Assay: FACS; FIG. 12F

| EC50 [nM] | Binder |
| --- | --- |
| 2.29 | B11 |

Target: T2, human 4-1BB on CHO-K1 cells
Assay: FACS blocking of 4-1BBL
Target sequence in this assay (Q07011 24-255): as above

| IC50 [nM] | Binder |
| --- | --- |
| 2.12 | B12 |
| 2.4 | B4 |
| 2.32 | B13 |
| 2.31 | B14 |
| 2.93 | B15 |
| 4.05 | B16 |
| 10.9 | B6 |
| 6.33 | B7 |

Target: human PD-L1 on CHO-K1 cells (human, UniProt Q9NZQ7 19-290)
Assay: FACS

Sequence of human PD-L1 on CHO-K1 cells (Q9NZQ7 19-290): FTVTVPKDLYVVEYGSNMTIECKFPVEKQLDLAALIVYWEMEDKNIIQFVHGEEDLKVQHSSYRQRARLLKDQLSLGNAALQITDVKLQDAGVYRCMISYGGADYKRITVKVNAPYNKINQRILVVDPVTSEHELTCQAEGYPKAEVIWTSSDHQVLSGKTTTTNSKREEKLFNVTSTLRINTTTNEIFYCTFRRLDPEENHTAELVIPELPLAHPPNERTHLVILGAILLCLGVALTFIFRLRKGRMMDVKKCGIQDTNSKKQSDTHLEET

| EC50 [nM] | Binder |
| --- | --- |
| 1.72 | B17 |

Target: T2, human 4-1BB on CHO-K1 cells
Assay: FACS blocking of 4-1BBL
Remark: another data set of the same source
Target sequence in this assay (Q07011 24-255): as the sequence (Q07011 24-255) above

| IC50 [nM] | Binder |
| --- | --- |
| 5.37 | B8 |
| 6.61 | B9 |
| 11.2 | B10 |

Target: T2, human 4-1BB on CHO-K1 cells
Assay: FACS

| EC50 [nM] | Binder |
| --- | --- |
| 0.477 | B4 |
| 0.492 | B5 |
| 0.249 | B18 |
| 2.43 | B6 |
| 0.708 | B7 |
| 0.399 | B19 |
| 5.87 | B20 |

Target: T2, human 4-1BB on CHO-K1 cells
Assay: FACS blocking of 4-1BBL
Remark: another data set of the same source
Target sequence in this assay (Q07011 24-255): as above

| IC50 [nM] | Binder |
| --- | --- |
| 2.31 | B1 |
| 4.99 | B21 |
| 2.05 | B2 |
| 3.61 | B3 |
| 2.79 | B18 |
| 4.34 | B19 |

Target: T2, human 4-1BB on CHO-K1 cells
Assay: FACS
Remark: another data set of the same source
Target sequence in this assay (Q07011 24-255): as above

| EC50 [nM] | Binder |
| --- | --- |
| 0.28 | B12 |
| 0.209 | B13 |
| 0.21 | B14 |
| 0.449 | B15 |
| 0.537 | B11 |

Target: T1, cynomolgus monkey 4-1BB on CHO-K1 cells
Assay: FACS; FIG. 12B

| EC50 [nM] | Binder |
| --- | --- |
| ~0.411 | B21 |
| 5.33 | B18 |
| 4.99 | B19 |
| 25 | B20 |

Target: T2, human 4-1BB on CHO-K1 cells
Assay: FACS
Remark: another data set of the same source

| EC50 [nM] | Binder |
| --- | --- |
| 10.2 | B17 |

Target: T2, human 4-1BB on CHO-K1 cells
Assay: FACS
Remark: another data set of the same source
Target sequence in this assay (Q07011 24-255): as above

| EC50 [nM] | Binder |
| --- | --- |
| 0.274 | B1 |
| 0.616 | B21 |
| 0.198 | B2 |
| 0.212 | B3 |

Target: T1, cynomolgus monkey 4-1BB on CHO-K1 cells
Assay: FACS; FIG. 12J

| EC50 [nM] | Binder |
| --- | --- |
| 4.88 | B8 |
| 1.99 | B9 |
| 2.1 | B10 |

Target: T1, cynomolgus monkey 4-1BB on CHO-K1 cells
Assay: FACS; FIG. 12E

| EC50 [nM] | Binder |
| --- | --- |
| 2.41 | B12 |
| 0.899 | B13 |
| 1.02 | B14 |
| 3.46 | B15 |
| 2.58 | B16 |
